Source: paper PMC11784390, “Conformational changes in and translocation of small proteins: insights into the ejection mechanism of podophages” (Journal of Virology, 2024)

B1: adaptor protein gp11 (natural protein, bacteriophage T7, UniProt P03746 1-196, looked up)
chain: MRSYDMNVETAAELSAVNDILASIGEPPVSTLEGDANADAANARRILNKINRQIQSRGWTFNIEEGITLLPDVYSNLIVYSDDYLSLMSTSGQSIYVNRGGYVYDRTSQSDRFDSGITVNIIRLRDYDEMPECFRYWIVTKASRQFNNRFFGAPEVEGVLQEEEDEARRLCMEYEMDYGGYNMLDGDAFTSGLLTR
notes: adaptor protein gp11 of bacteriophage T7, as it stands in the virion; Native virion protein; source: T7 virions propagated in E. coli, purified (PEG precipitation, CsCl ultracentrifugation); copies: 12
B2: core protein gp15 (natural protein, bacteriophage T7, UniProt P03725 1-747, looked up)
chain: MSKIESALQAAQPGLSRLRGGAGGMGYRAATTQAEQPRSSLLDTIGRFAKAGADMYTAKEQRARDLADERSNEIIRKLTPEQRREALNNGTLLYQDDPYAMEALRVKTGRNAAYLVDDDVMQKIKEGVFRTREEMEEYRHSRLQEGAKVYAEQFGIDPEDVDYQRGFNGDITERNISLYGAHDNFLSQQAQKGAIMNSRVELNGVLQDPDMLRRPDSADFFEKYIDNGLVTGAIPSDAQATQLISQAFSDASSRAGGADFLMRVGDKKVTLNGATTTYRELIGEEQWNALMVTAQRSQFETDAKLNEQYRLKINSALNQEDPRTAWEMLQGIKAELDKVQPDEQMTPQREWLISAQEQVQNQMNAWTKAQAKALDDSMKSMNKLDVIDKQFQKRINGEWVSTDFKDMPVNENTGEFKHSDMVNYANKKLAEIDSMDIPDGAKDAMKLKYLQADSKDGAFRTAIGTMVTDAGQEWSAAVINGKLPERTPAMDALRRIRNADPQLIAALYPDQAELFLTMDMMDKQGIDPQVILDADRLTVKRSKEQRFEDDKAFESALNASKAPEIARMPASLRESARKIYDSVKYRSGNESMAMEQMTKFLKESTYTFTGDDVDGDTVGVIPKNMMQVNSDPKSWEQGRDILEEARKGIIASNPWITNKQLTMYSQGDSIYLMDTTGQVRVRYDKELLSKVWSENQKKLEEKAREKALADVNKRAPIVAATKAREAAAKRVREKRKQTPKFIYGRKE
notes: core protein gp15 of bacteriophage T7, as it stands in the mature virion; Eight-fold ring in the core of mature T7; source: T7 virions propagated in E. coli, purified (PEG precipitation, CsCl ultracentrifugation)

Assays:
nozzle protein gp12 = target: T1, nozzle protein gp12 (bacteriophage T7, UniProt P03747 1-794); test: cryo-EM structure; DNA-ejected T7: purified mature T7 incubated with rough LPS (250 µg/mL) at 37°C for 3 h; entire particle asymmetric 8.2 Å; portal–tail complex 3.5 Å (six-fold); conditions: both partners purified
T1 construct: nozzle protein gp12 of bacteriophage T7, as it stands in the virion; Native virion protein; also called tail nozzle; source: T7 virions propagated in E. coli, purified (PEG precipitation, CsCl ultracentrifugation)
T1 sequence (looked up): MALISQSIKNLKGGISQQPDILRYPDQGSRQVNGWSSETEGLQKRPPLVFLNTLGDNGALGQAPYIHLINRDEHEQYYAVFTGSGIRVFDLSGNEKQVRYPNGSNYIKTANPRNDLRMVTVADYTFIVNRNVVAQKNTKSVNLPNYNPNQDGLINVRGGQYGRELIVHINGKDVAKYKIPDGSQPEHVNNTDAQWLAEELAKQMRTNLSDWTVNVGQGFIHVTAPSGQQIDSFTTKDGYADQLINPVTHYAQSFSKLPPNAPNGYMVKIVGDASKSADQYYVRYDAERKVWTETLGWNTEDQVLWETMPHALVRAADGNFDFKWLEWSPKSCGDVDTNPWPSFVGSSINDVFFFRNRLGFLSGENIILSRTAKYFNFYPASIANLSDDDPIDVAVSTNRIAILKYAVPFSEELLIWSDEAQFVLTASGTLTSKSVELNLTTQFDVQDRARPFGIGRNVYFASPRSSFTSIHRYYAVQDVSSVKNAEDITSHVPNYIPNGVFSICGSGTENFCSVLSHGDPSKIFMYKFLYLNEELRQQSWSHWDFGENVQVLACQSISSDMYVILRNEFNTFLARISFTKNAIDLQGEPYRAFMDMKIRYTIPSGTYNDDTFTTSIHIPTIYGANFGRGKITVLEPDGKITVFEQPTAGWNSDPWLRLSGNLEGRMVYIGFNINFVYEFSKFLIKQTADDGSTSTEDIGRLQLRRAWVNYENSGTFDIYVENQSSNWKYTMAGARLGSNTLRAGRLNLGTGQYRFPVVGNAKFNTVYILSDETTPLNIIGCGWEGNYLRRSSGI

portal protein gp8 = target: T2, portal protein gp8 (bacteriophage T7, UniProt P03728 1-536); test: as above; conditions: both partners purified
T2 construct: portal protein gp8 of bacteriophage T7, as it stands in the virion; Native virion protein; also called dodecameric portal; source: T7 virions propagated in E. coli, purified (PEG precipitation, CsCl ultracentrifugation); copies: 12
T2 sequence (looked up): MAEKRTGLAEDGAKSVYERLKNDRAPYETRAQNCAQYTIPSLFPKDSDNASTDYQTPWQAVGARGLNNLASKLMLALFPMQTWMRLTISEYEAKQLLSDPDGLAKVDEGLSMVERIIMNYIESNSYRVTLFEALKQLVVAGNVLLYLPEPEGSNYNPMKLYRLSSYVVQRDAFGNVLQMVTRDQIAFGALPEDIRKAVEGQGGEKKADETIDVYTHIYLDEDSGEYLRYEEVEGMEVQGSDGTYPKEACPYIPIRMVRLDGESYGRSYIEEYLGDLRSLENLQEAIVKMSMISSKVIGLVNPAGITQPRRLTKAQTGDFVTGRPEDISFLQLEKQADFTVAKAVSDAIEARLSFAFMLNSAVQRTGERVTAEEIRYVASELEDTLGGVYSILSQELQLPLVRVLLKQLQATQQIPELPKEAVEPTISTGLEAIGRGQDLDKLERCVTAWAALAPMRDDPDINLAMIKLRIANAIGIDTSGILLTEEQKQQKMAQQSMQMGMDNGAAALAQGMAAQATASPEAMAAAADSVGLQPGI

[1] = target: the molecule itself; test: cryo-EM structure; mature T7 virions, in situ; entire particle asymmetric 6.1 Å; local reconstructions of core complex 3 Å (four-fold), portal 2.5 Å (twelve-fold), portal–tail complex 2.7 Å (six-fold)
core protein gp16 = target: T3, core protein gp16 (bacteriophage T7, UniProt P03726 1-1318); test: as above; conditions: both partners purified
T3 construct: core protein gp16 of bacteriophage T7, as it stands in the mature virion; Four-fold ring in the core of mature T7; source: T7 virions propagated in E. coli, purified (PEG precipitation, CsCl ultracentrifugation)
T3 sequence (looked up): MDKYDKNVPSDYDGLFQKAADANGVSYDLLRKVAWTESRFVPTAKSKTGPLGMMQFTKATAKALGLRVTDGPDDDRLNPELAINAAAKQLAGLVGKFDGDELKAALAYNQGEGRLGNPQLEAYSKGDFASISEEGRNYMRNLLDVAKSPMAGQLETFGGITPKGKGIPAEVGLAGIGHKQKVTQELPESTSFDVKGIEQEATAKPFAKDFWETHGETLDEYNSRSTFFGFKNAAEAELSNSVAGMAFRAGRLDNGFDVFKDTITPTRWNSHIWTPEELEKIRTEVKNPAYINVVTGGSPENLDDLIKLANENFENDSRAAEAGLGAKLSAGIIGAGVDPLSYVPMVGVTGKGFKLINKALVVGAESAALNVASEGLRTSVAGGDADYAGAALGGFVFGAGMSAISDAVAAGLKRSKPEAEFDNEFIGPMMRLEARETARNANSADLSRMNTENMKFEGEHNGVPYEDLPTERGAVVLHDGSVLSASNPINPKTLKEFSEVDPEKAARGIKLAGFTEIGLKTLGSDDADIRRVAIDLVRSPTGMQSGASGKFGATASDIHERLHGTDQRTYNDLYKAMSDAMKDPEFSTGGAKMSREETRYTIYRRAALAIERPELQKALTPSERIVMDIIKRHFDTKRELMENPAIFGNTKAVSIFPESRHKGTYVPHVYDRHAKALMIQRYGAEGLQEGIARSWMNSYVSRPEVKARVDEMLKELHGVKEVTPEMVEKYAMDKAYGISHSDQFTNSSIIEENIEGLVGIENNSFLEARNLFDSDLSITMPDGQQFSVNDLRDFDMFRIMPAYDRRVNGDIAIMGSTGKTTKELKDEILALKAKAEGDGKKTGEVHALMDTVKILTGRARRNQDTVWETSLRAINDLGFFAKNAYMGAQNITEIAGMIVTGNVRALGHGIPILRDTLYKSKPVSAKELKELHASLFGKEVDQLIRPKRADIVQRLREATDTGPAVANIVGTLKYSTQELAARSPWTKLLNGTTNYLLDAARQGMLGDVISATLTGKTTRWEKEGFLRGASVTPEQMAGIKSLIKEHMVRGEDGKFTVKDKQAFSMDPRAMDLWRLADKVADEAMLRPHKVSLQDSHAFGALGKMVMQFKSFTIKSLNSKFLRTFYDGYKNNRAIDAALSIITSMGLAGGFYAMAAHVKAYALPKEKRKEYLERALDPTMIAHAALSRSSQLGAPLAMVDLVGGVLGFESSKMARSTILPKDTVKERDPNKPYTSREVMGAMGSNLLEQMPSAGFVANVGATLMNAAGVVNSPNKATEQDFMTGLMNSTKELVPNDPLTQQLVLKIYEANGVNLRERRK

Binder | binding result (nozzle protein gp12) | binding result (portal protein gp8) | stoichiometry N [1] | binding result (core protein gp16)
B1 | binds | binds | 12 | –
B2 | – | – | 8 | binds
